Entries after “also recorded” stand apart in the source; their conditions may differ.
Tests used:
PTP1B (reduced, active) = molecular target: T1, PTP1B (reduced, active) (Homo sapiens, UniProt P18031); assay: Direct effect of scFvs/antibodies on PTP1B phosphatase activity (32P-pTyr-RCML substrate); assay type: biochemical; conditions: 32P-labeled pTyr-RCML substrate, FIG. 1
T1 construct: made in house; host or cells: E. coli BL21 (pET19b)
T1 sequence (P18031 3-277 limits assumed): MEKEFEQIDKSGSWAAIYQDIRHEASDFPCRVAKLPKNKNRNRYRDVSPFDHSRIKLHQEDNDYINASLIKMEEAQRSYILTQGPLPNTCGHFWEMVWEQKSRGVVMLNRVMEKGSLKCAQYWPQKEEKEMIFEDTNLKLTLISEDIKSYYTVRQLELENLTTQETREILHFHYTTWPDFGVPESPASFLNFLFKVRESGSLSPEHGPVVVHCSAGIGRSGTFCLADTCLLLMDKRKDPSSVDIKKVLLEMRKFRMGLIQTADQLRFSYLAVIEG
Description: Applicant's hypothesis was that scFvs that are able to bind to and stabilize the oxidized conformation of PTP1B in solution would inhibit reactivation by reducing agent, but have no direct inhibitory effect on phosphatase activity in assays in vitro. Activity was measured using ^32P-labeled pTyr-Reduced Carboxamidomethylated and Maleylated Lysozyme as substrate. Applicant established conditions in which wild type PTP1B could be reversibly oxidized in vitro. PTP1B was inactivated following addition of H2O2. […] Applicant validated this approach further, by testing the effects of expressing one of the scFvs (scFv45) as a single chain antibody fragment “intrabody” to PTP1B, using 293T cells as the expression system. This intrabody was expressed transiently and then tested for effects on insulin signaling, focusing initially on the tyrosine phosphorylation status of the beta-subunit of the insulin receptor and insulin receptor substrate (IRS-1).
Reduced carboxamidomethylated and maleylated lysozyme (RCML) was labeled with ^32P using recombinant GST-FER kinase to stoichiometries up to 0.8 (mol ^32P incorporated/mol of protein). This ^32P-Labeled phospho-tyrosyl RCML was used as the substrate in the in-solution phosphatase assay for screening the conformation sensor scFvs. Recombinant PTP1B was reversibly oxidized and transiently inactivated with H2O2 (5× molar excess of the protein). […] Purified bacterially expressed scFvs (100× molar excess of PTP1B) were incubated with PTP after H2O2 treatment and its removal and the effect of individual scFv on stabilizing the reversibly oxidized conformation was assessed by the phosphatase assay under reducing condition.
In order to screen the isolated scFvs for those that inhibit reactivation of PTP1B-OX by reducing agent, but have no direct inhibitory effect on phosphatase activity in assays in vitro, the effect of six scFvs (scFv20, scFv34, scFv45, scFv57, scFv64 and scFv106) on PTP1B activity was determined. PTP1B activity was measured using 32P-labeled pTyr-Reduced Carboxamidomethylated and Maleylated Lysozyme as substrate (FIGS. 1 and 2). Addition of the reducing agent TCEP alone had no substantial effect in PTP1B activity was assessed.

[1] = molecular target: T2, PTP1B under reducing condition (Homo sapiens, UniProt P18031); assay: In vitro binding assay, purified recombinant PTP1B (37 kDa) and purified scFv, Ni-NTA pull down, reducing condition; conditions: with 2 mM TCEP; FIG. 9
T2 construct: made in house; host or cells: E. coli BL21 (pET19b)
T2 sequence (P18031 3-277 limits assumed): T1 sequence (P18031 3-277 limits assumed)
Description: (§1) They established conditions in which PTP1B is reversibly oxidized by H2O2 in solution (FIG. 8). An artificial protein substrate RCML, in which tyrosine was phosphorylated with ^32P using recombinant GST-FER kinase was used in this assay to measure the phosphatase activity. Recombinant PTP (37 kDa) was incubated with increasing concentration (50 μM to 100 mM) of H2O2. A quick buffer exchange was done to remove the H2O2 and reducing agent (TCEP) was added to reactivate the enzyme.
(§2) In the in vitro binding assay, purified PTP was reversibly oxidized with […] followed by a quick buffer exchange to remove H2O2 (FIG. 8). Purified scFv was incubated in molar excess with PTP1B-OX or with PTP under reducing condition (with 2 mM TCEP) in binding buffer (20 mM HEPES, pH 7.4, 300 mM NaCl, 0.05% BSA, 0.05% Tween-20 and 10 mM imidazole) for 2 hours at 4° C. Ni-NTA agarose was added and incubated for one hour at 4° C. Protein complex bound to Ni-NTA agarose beads was pulled down and washed (three times, 5 minutes each, at 4° C.) with binding buffer containing 20 mM imidazole to reduce non-specific binding to the beads. The protein complex was eluted from the Ni-NTA agarose beads with 500 mM imidazole (in binding buffer, pH 7.4) for 15 minutes at 4° C. with gentle shaking. The complex was separated by SDS-PAGE and PTP1B was detected with anti-PTP1B antibody (FG6) and scFv was detected with anti-HA antibody [anti-HA (3F10)-HRP, Roche] by immunoblotting. Eight different scFvs (scFvs 20, 21, 24, 28, 45, 48, 57, and 105), expressed and purified from bacterial cultures were tested by this in vitro binding experiment.

PTP1B-OX = molecular target: T3, PTP1B-OX (Homo sapiens, UniProt P18031); assay: In vitro binding assay, purified recombinant PTP1B (37 kDa) and purified scFv, Ni-NTA pull down; conditions: purified proteins, scFv in molar excess, 2 hours at 4° C.; FIG. 9
T3 construct: made in house; host or cells: E. coli BL21 (pET19b)
T3 sequence (P18031 3-277): T1 sequence (P18031 3-277 limits assumed)
Description: as §1, §2

[2] = molecular target: T4, endogenous PTP1B under reducing conditions (Homo sapiens, UniProt P18031); assay: Intrabody interaction in 293T cells under reducing condition (NAC, TCEP) (Ni-NTA pull down / immunoprecipitation); assay type: cell-based; conditions: 20 mM NAC, lysis buffer with 2 mM TCEP, FIGS. 11, 12
T4 construct: endogenous in cells; host or cells: 293T cells (transfected only with the scFv intrabody)
T4 sequence (P18031 1-435): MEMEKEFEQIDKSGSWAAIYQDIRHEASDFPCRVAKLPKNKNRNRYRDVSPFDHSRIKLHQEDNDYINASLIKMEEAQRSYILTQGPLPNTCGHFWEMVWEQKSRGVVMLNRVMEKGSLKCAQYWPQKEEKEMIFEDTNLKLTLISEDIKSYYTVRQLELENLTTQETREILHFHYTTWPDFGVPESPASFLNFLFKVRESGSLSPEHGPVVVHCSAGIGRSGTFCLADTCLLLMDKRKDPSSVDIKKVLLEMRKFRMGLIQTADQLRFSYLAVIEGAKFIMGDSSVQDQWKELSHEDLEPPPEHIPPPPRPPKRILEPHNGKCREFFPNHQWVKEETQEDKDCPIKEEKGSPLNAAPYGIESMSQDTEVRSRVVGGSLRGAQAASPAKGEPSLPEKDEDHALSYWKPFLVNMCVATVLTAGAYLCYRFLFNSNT
Description: (§3) One of the positive candidate scFvs (scFv45) was cloned in pcDNA3.2/V5-GW/D-TOPO expression vector and transiently expressed in mammalian cells as stable intracellular antibody (aka intrabody) (FIG. 10). To detect PTP1B-OX and scFv45 interaction in mammalian cells, scFv45 was overexpressed in 293T cells as described herein (See Example 4) and 48 hours post transfection the cells were serum-starved for 16 hours in growth medium (DMEM, low glucose) without serum (FBS), then incubated with 1 mM H2O2 (in growth medium without serum) for 5 minutes at 37° C. or treated with 20 mM NAC (in growth medium without serum) for 1 hour at 37° C. Cells treated with H2O2 were washed twice with cold (4° C.) PBS and lysed in lysis buffer (25 mM HEPES, pH 7.4, 150 mM NaCl, 0.25% Deoxychloate, 1% TritonX-100, 25 mM NaF, 10 mM MgCl2, 1 mM EDTA, 10% Glycerol, 0.5 mM PMSF, 10 mM Benzamidine, protease inhibitor cocktail). Cells treated with NAC were lysed with lysis buffer containing 2 mM TCEP to ensure a post-lysis reducing environment. Interaction between PTP1B and intrabody45 were tested by pulling down the protein complex from 1 mg of total cell lysate with Ni-NTA agarose or by immunoprecipitating PTP with anti-PTP1B (FG6). For the pull down experiment, Ni-NTA agarose beads were incubated with the lysates (both oxidized and reduced) at 4° C. Protein complex bound to the Ni-NTA agarose beads was pulled down and washed three times; first with lysis buffer containing 20 mM imidazole followed by two more washes with wash buffer (PBS, pH 7.4, 20 mM imidazole, 0.05% BSA, 0.05% Tween-20 and protease inhibitors). Applicant used 20 mM imidazole in the wash buffer to reduce the non-specific binding of proteins with the Ni-NTA agarose beads. The complex was eluted with wash buffer containing 500 mM imidazole with gentle shaking at 4° C. and the eluate was mixed with SDS sample buffer with DTT. For the immunoprecipitation experiments, 1 mg of total cell lystates (both oxidized and reduced) was incubated with anti-PTP1B antibody (FG6) at 4° C. The interacting protein complex was immunoprecipitated after incubating the lysate-antibody mixture with protein A/G Sepharose at 4° C. After immunoprecipitation, Sepharose beads were washed three times; first with lysis buffer followed by two more washes with wash buffer (PBS, pH 7.4, 0.05% BSA, 0.05% Tween-20 and protease inhibitors). The Sepharose beads were then heated at 90° C. in 2×SDS sample buffer with DTT. Proteins from the pulled down or immunoprecipitated complex were separated by SDS-PAGE. PTP was detected with anti-PTP1B antibody (FG6) and the intrabodies were detected with anti-HA (3F10)-HRP antibody [anti-HA (3F10)-HRP, Roche] by immunoblotting.
In the initial in vitro phosphatase screening assay using reversibly oxidized (with H2O2) recombinant PTP1B, Applicant found four different PTP1B-OX specific scFvs (scFv45, scFv57, scFv64 and scFv106) from the initial pool of 12 different scFvs. […] Applicant has also shown that scFv45, expressed as an intrabody in mammalian cells, can bind to endogenous PTP1B-OX but not endogenous PTP under reducing conditions. Further assessment was carried out to identify additional PTP1B-OX-specific intrabodies. Additional scFvs have been subcloned in pcDNA3.2/V5-GW/D-TOPO mammalian expression vector (FIG. 10) from their respective phagemid constructs. […]

endogenous PTP1B-OX = molecular target: T5, endogenous PTP1B-OX (Homo sapiens, UniProt P18031); assay: Intrabody interaction in 293T cells treated with H2O2 (Ni-NTA pull down / anti-PTP1B immunoprecipitation); assay type: cell-based; conditions: 1 mM H2O2 5 minutes, FIGS. 11, 12
T5 construct: endogenous in cells; host or cells: 293T cells (transfected only with the scFv intrabody)
T5 sequence (P18031 1-435): T4 sequence (P18031 1-435)
Description: as §3
In the initial in vitro phosphatase screening assay using reversibly oxidized (with H2O2) recombinant PTP1B, Applicant found four different PTP1B-OX specific scFvs (scFv45, scFv57, scFv64 and scFv106) from the initial pool of 12 different scFvs. […] Applicant has also shown that scFv45, expressed as an intrabody in mammalian cells, can bind to endogenous PTP1B-OX but not endogenous PTP under reducing conditions. Further assessment was carried out to identify additional PTP1B-OX-specific intrabodies. Additional scFvs have been subcloned in pcDNA3.2/V5-GW/D-TOPO mammalian expression vector (FIG. 10) from their respective phagemid constructs. After transient overexpression of these scFvs as intrabodies in 293T cells, the interaction between endogenous PTP1B and these intrabodies in both H2O2-treated cells and cells was observed under reducing condition (treated with NAC and lysed with lysis buffer containing TCEP). […] All can be used in the methods and compositions described herein. Additional scFvs, such as some or all of the 137 selected individual scFvs from the library, can be similarly tested by in vitro screening and/or by binding assay in mammalian cells.

B1: scFv20: scFv, SEQ ID NO: 53 (protein)
scFv: MKKTAIAIAVALAGFATVAQAALTQPSSVSANLGGIVEITCSGSSGSYGWYQQKSPGSAPVTVIYYNDKRPSNIPSRFSGSGSGSTNTLTIAGVRAEDEAVYYCGNEDSSGAAFGAGTTLTVLGQSSRSSAVTLDESGGGLQTPGGGLSLVCKASGFTFSDYDMFWVRQAPSKGLEFVAAITSSGTGTKYGAAVKGRATISKDNGQRTVRLQLNSLGAEDTGTYYCARSDADSTTWSAGEIDAWGHGTEVIVSSTSGQAGQHHHHHHGAYPYDVPDYAS
direct effect on PTP1B activity (PTP1B (reduced, active)): no direct inhibition of PTP activity
binding to PTP1B under reducing condition in vitro [1]: no significant binding
binding to PTP1B-OX in vitro (PTP1B-OX): no significant binding

B2: scFv67: scFv, SEQ ID NO: 100 and 161 (protein)
scFv: MKKTAIAIAVALAGFATVAQAALTQPSSVSANPGGTVKITCSGSSSAYGYGWYQQKSPGSAPVTVIYNNNKRPSNIPSRFSGSKSGSTGTLTITGVQAEDEAVYFCGSEDSSTDAIFGAGTTLTVLGQSSRSSAVTLDESGGGLQTPGGALSLVCKASGFTFSSYDMGWVRQAPGKGLEYVAGITNDGRYASYGSAVDGRATISRDNGQSTVRLQLNNLRAEDTGTYYCARDDGSGWTGNTIDTWGHGTEVIVSSTSGQAGQHHHHHHGAYPYDVPDYAS
binding of intrabody to endogenous PTP1B under reducing conditions [2]: not in the presence of NAC and TCEP
binding of intrabody to endogenous PTP1B-OX (endogenous PTP1B-OX): bound to endogenous PTP1B-OX strongly; also recorded: co-pulldown of PTP1B-OX in the presence of H2O2

B3: scFv102: scFv, SEQ ID NO: 130 and 162 (protein)
scFv: MKKTAIAIAVALAGFATVAQAALTQPSSVSANPGETVKITCSGGSGSYGWYQQESPGSAPVTVIYYNDKRPSDIPSRFSGSASGSTATLTIAGVRAEDEAVYFCGSWDSSTSAGIFGAGTALTVLGQSSRSSAVTLDESGGGLQTPGGGLSLVCKASGFSSSHGMGWMRQAPGKGLEFVAGIRSDGSSTAYGAAVDGRATITRDDGQSTVTLQLNNLRAEDTATYFCAKTNSYNSAGIIDAWGHGTEVIVSSTSGQAGQHHHHHHGAYPYDVPDYAS
binding of intrabody to endogenous PTP1B under reducing conditions [2]: not in the presence of NAC and TCEP
binding of intrabody to endogenous PTP1B-OX (endogenous PTP1B-OX): bound to endogenous PTP1B-OX strongly; also recorded: co-pulldown of PTP1B-OX in the presence of H2O2

B4: scFv34: scFv, SEQ ID NO: 67 and 163 (protein)
scFv: MKKTAIAIAVALAGFATVAQAALTQPSSVSANPGGTVEITCSGSSGSHGWYQQKSPGSAPVTVIYDNTNRPSDIPSRFSGSLSGSTATLTITGVQAEDEAVYYCGSFDTNSDSGYVGIFGARTTLTVLGQSSRSSTETLDDSGGGLQTPGGALSLVCNASGFTFISYDMFWVRQAPGKGLEFVTQINSAGSYTNYGSAVNGRATISRNDGQITVRLQLNDLTADDTGIYFCAESASGYDYSGSDAGDINAWGHGTEVVVSSTSGQAGQHHHHHHGAYPYDVPDYAS
direct effect on PTP1B activity (PTP1B (reduced, active)): no direct inhibition of PTP activity
binding of intrabody to endogenous PTP1B-OX (endogenous PTP1B-OX): bound weakly to PTP1B-OX
